Assay results: patent publication US12662540B2, “Compositions and methods for inhibition of MICA/B shedding” (DANA-FARBER CANCER INSTITUTE, INC., priority 2017, dated 2026)

Experiments:
[1] = system: A375 cells; experiment: NK cell cytotoxicity assay (51Cr release), human NK cells against human tumor cells; type: cell-based; details: human NK cells; antibody added at time of killing assay (10 μg/ml, 66.7 nM)
Protocol: Human NK cells were isolated from fresh leukapheresis blood collars that had been generated by Brigham & Women's Hospital, Boston, from healthy donors. Samples were diluted with an equal volume of PBS and blood mononuclear cells were isolated by Ficoll density gradient centrifugation. Cells were washed with PBS, and NK cells were isolated by negative selection using the Human NK Cell Isolation Kit (130-092-657, Miltenyi Biotech) using an autoMACS system (Miltenyi Biotech). Enriched NK cells (purity of 50-90%) were then incubated with anti-CD56 (PE or APC conjugated) and anti-CD3 (FITC or Pacific Blue conjugated) (Biolegend) and sorted using a BD FACS Aria. Following sorting, NK cell purity was ˜99%. These cells were cultured for twelve hours in complete RPMI media supplemented with 300-1000 U/ml of recombinant human IL-2 (BD Pharmingen).
Target cells were labeled for 1 hour with 100 μCi of ^51[Cr] per 2×10^6 cells in 0.2 ml of media. Subsequently, cells were washed and plated in V-bottom 96-wells plates (5,000 target cells per well). To determine the experimental release, NK cells were added in an equal volume, but at different ratios. To determine maximum and spontaneous release, target cells were mixed with an equal volume of 2% Triton-X100 in PBS or an equal volume of media, respectively. Antibodies were added at a final concentration of 10 μg/ml.
For experiments shown in FIGS. 1E, 10, and 13E antibodies were added at the time of the killing assay. For FIGS. 3A-B, antibodies were added to tumor cells 48 hours prior to labelling with ^51[Cr] to inhibit MICAS shedding. The isotype control antibody for assays with human NK cells was recombinant human IgG1 Fc (BE0096, BioXcell). […] At the end of the incubation period, plates were centrifuged (2000 rpm, 5 minutes), part of the supernatant was collected, mixed with scintillation fluid, and radioactivity was quantified using a MicroBeta2 reader (Perkin Elmer). Specific killing was calculated using the following formula: 100×(Experimental release−Spontaneous release)/(Maximum release−Spontaneous release).

[2] = target: NKG2D binding to MICA (Homo sapiens, UniProt Q29983, C59Y/G229S/K148E/K196E/M152V/Q274R/S238T/T236I/T47A/W233R); experiment: Bead assay for NKG2D receptor binding to MICA; details: MICA (allele 008) beads, human NKG2D-Fc dimer 10 μg/ml
Protocol: Streptavidin-conjugated C4 beads (BD Pharmingen) were incubated for 2 hours with MICA biotinylated at a C-terminal BirA site (200 ng of MICA per 10,000 beads). Beads were then washed with PBS containing 1% FBS. For the NKG2D receptor binding assay, chimeric human NKG2D-Fc dimer (1299-NK-050, R&D Systems) was conjugated with Alexa^488 (A10468, Molecular Probes) and used at 10 μg/ml. Binding of murine NKG2D to human MICA was measured using NKG2D-Fc dimers (10 μg/ml) followed by an Alexa^488-conjugated anti-human IgG (Molecular Probes) that bound to the Fc region of the NKG2D-Fc dimer. MICA antibodies were also used as competitors for NKG2D dimer binding at concentrations of 10, 30 and 100 μg/ml. In these assays, NKG2D dimer and MICA antibodies were co-incubated with biotinylated MICA*008-conjugated beads.

[3] = system: B16F10-MICA cells; experiment: Mouse NK cell transfer and B16F10-MICA metastases in Rag2−/− Il2rg−/− mice; type: in vivo
Protocol: NK cell adoptive transfer was done as described previously (25). Briefly, NK cells from mice of indicated genotypes were isolated from the spleen, enriched by negative selection, and sorted to achieve an NK cell purity of ˜99%. Subsequently, 2×10^5 NK cells were injected intravenously into Rag2^−/− IL2rg^−/− mice. Three days later, reconstitution was checked in blood samples by flow cytometry, and no differences in NK cell frequency were observed among the NK cell genotypes. Subsequently, 4×10^5 B16F10-MICA cells (with luciferase reporter) were injected intravenously (day 0). On days 1, 2, 7, and 10, mice received 200 μg 7C6-mIgG2b or MPC-11 (isotype control) by intraperitoneal injection. Mice were bled at the indicated time points. Euthanasia by CO2 inhalation was performed on day 14 followed by counting of superficial lung metastases as described above.

[4] = system: A375 melanoma cell line; experiment: In vitro assay for inhibition of MICA shedding, A375 cells (sandwich ELISA of supernatant); type: cell-based, human; details: A375 cells treated for 24 hours
Protocol: Tumor cells (5×10^4 or 1×10^5 per well, depending on the cell line) were cultured for 24 to 72 hours in 96-well plates (flat-bottom plates for adherent cell lines, U-bottom plates for suspension cell lines). Human and murine cell lines were cultivated in RPMI-1640 or DMEM media, respectively, supplemented with 10% fetal bovine serum (FBS), 1× Glutamax® (Gibco), and 1× Penicillin and Streptomycin (Gibco). MICA or control antibodies were added at different concentrations, and shed MICA/B was then detected in supernatants by ELISA using the Human MICA ELISA kit (Ab59569, Abcam) or Human MICB DuoSet ELISA kit (DY1599, R&D Systems), using the procedures recommended by the manufacturers. For both assays, standard curves were generated using recombinant MICA*008 or MICB*005 extracellular domain proteins that had been expressed using the Baculovirus system.

[5] = system: RPMI-8226 cell line; experiment: Proteasome inhibitor combination with MICA/B antibody, multiple myeloma cell lines; type: cell-based, human
[6] = system: human NK cells; experiment: Intracellular interferon-γ production by NK cells co-cultured with tumor cells; type: cell-based; details: co-culture with tumor cells, antibody 10 μg/ml
Protocol: NK cells were co-cultured for 6 hours at a ratio of 5:1 with tumor cells in the presence of Brefeldin-A (Biolegend). After the incubation time, Fc receptors were blocked, cells stained with NK cell markers, stained further with a dead cell marker (Zombie Yellow, Biolegend), and subsequently processed for intracellular interferon-γ labeling. Briefly, cells were fixed with BD Cytofix/Cytoperm™ Fixation and Permeabilization Solution (BD Pharmingen), permeabilized with Permeabilization Wash Buffer (Biolegend), and stained with APC-conjugated anti-human interferon-γ (4S.B3, Biolegend) or appropriate isotype control. Fluorescence spectra were acquired using a LSR Fortessa flow cytometer and analyzed by FlowJo.

Chain of NKG2D binding to MICA (Q29983 24-307 T47A/C59Y/K148E/M152V/K196E/G229S/W233R/T236I/S238T/Q274R): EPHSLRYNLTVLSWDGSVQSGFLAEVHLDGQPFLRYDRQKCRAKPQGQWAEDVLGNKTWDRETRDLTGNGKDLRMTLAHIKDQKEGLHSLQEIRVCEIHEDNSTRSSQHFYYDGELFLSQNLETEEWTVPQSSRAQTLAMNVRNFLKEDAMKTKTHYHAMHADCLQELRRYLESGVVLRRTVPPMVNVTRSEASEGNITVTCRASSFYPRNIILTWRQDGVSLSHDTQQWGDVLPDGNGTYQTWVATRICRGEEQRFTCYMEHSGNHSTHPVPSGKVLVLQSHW

B1: 7C6: monoclonal antibody from mice immunized with recombinant MICA α3 domain; parental mIgG2b; VH SEQ ID NO: 7, VL SEQ ID NO: 8 (antibody)
VH: QIQLVQSGPELKKPGETVKVSCKASGYMFTNYAMNWVKQAPEKGLKWMGWINTHTGDPTYADDFKGRIAFSLETSASTAYLQINNLKNEDTATYFCVRTYGNYAMDYWGQGTSVTVSSAKTTAPSVYPLAPVCGDTTGSSVTLGCLVKGYFPEPVTLTWNSGSLSSGVHTFPAVLQSDLYTLSSSVTVTSS
VL: DIQMTQTTSSLSASLGDRVTISCSASQDISNYLNWYQQKPDGTVKLLIYDTSILHLGVPSRFSGSGSGTDYSLTISNLEPEDIATYYCQQYSKFPRTFGGGTTLEIK
modifications: mAb 7C6 heavy chain amino acid sequence; mAb 7C6 light chain amino acid sequence
[1]
  NK cell mediated cytotoxicity against human tumor cells: increases NK cell cytotoxicity
[2]
  inhibition of NKG2D receptor binding to MICA: do not inhibit NKG2D receptor binding
[3]; day 14
  lung metastases after transfer of NK cells deficient in either NKG2D (Klrk1) or CD16 (Fcgr3a): therapeutic effect was maintained (but more variable)
  lung metastases after transfer of NK cells lacking both NKG2D and CD16: antibody therapy was ineffective
  lung metastases after transfer of WT NK cells: most consistent reduction in the number of lung metastases
[3]; mouse, in vivo
  serum shed MICA after transfer of NK cells lacking both NKG2D and CD16: shed MICA was still reduced
[4]
  MICA shedding (shed MICA released into supernatant): inhibit MICA release into the supernatant
[5]; 1 nM bortezomib, versus PBS+Isotype
  human NK cell cytotoxicity against RPMI-8226, bortezomib plus antibody: Human NK cell cytotoxicity is increased
[5]; RPMI-8226, 24 hours, 10 mg/ml 7C6
  surface MICA/B, antibody plus proteasome inhibitor: expresses higher levels of surface MICA/B
[6]
  IFNγ (cytokine) production by human NK cells: increases NK cell cytotoxicity and cytokine production
